From publication PMC11508087 (PLOS Pathogens, 2024)

Experiments:
[1] = target: FMDV O/18074 146S antigen (Foot-and-mouth disease virus serotype …, strain)
[2] = target: T1, FMDV O/Tibet/99 146S antigen (Foot-and-mouth disease virus serotype …, strain); assay: BLI; RED96; […] (10 μg/ml) […]; 0.01 M PBS, 0.1% BSA, 0.02% Tween 20; global fit; conditions: both partners purified
T1 construct: copies: + + +

B1: pOA-12 (antibody, V domains shown)
VH: EEKLVESGGGLVQPGGSLTLSCVGSGFYFSNYEIVWVRQVRGGGLEWISYVSNGGARTSYALSVKGRFTIFRDNSRNTVDLHLNNLRIEDTARYYCVGGGQCLGDNCYSMALWGPGVEVFVSS
VL: QTVIQEPAMSVSLGGTVTLTCAFTSGSVTKTNYPSWFQQTPGQPPRQLIYHTDNQATGVPSRFSGAISGNKATFTITGAQAEDEADYFCCLYRGTTNVPFGGGTRLTVL
B1: binds [1].

B2: pOA-14 (antibody, V domains shown)
VH: EERLVESGGGLVQPGGSLKLSCVASGFDFQKYMINWVRQAPGKGLEWLALIWNDGKQRYYVESAHMRFTISRNNSQNTAYLEMNRLRVEETARYYCARGWGVEKMDLWGPGVEVAVSS
VL: QTVIQEPAMTVSLGGTVTLTCGFSSGSVTGTKYPNWYQQTPGQRPRLLIYSTKIRPTGVPSRFSGAISGNKATLTIMGAGAEDEADYYCSLNQNYKIIFGAGTHLIVL
B2: binds [1].

B3: pOA-4 (antibody, V domains shown)
VH: EEKLVESGGGLVRPGGSLRLSCVGSGFPWNTYSVRWVRQAPMKGLEFVAYIFKNDNDRDYASSVKGRFTISRDNSQNTAYLQMNNLRTEDTAHYYCLLANKYWGPGVEVVVSS
VL: AVVLTQTPVSLTVSVGEPASISCSSSQSLVEDDGSSVLNWYLQKPGQSPQRLIYSAVGRDTGVPDRFSGSGSGTEFTLKISRVEAEDAGVYYCQQSRFSTSFGAGSKLELK
B3: binds [1].

B4: pOA-16 (antibody, V domains shown)
VH: EEKLVESGGGLVQPGGSLTLSCVGSGFDFSLYNMIWVRQAPGKGLEWLAGIWESGVQDSYPESMKGRFTISRDNSQNTAYLKIHILGMEDTARYYCASGARCGEDRCIDLWGPGVEVVVSS
VL: QTVIQEPAMKVSPGGTVTLSCAFSSGSVTTSNYPSWFQHTPGQPPRLLMYRTSYRPTGVNSRFSGAISGNKATLTITGAQTTDEADYYCALFLNTITIPFGGGTHLTVL
B4: binds [1].

B5: pOA-18 (antibody, V domains shown)
V domain 1: EEKLVESGGGLVQPGGSLRLSCVGSGFTFTNYEIVWVRQAPGRGPEWISYISNGGARKAYATSVRGRFSISRDNSRNTVDLQLNNLKIEDTGRYYCVGGGHCLGDNCYSLSLWGPGVELVVSS
V domain 2: QTVIQEPAMSVSPGGTVTLTCAFYSGSVTSENYPSWFQQTSGQPPREVIYMTDNRPTGVPDRFSGSISGNKATLTITGAQAEDEADYFCMLYKGTTNVPFGGGTHLTVL
B5: binds [1].

B6: pOA-11 (antibody, V domains shown)
VH: EEKVVESGGGLVRPGESLRLSCVAEGVEFGRRSVRWVRQRPGKGLEFVIYMFNDAQSVDIADSVKGRFTISRDNSQNTAYLQMNRLTVEDTGRYFCLTANKWFGPGVEVVVSS
VL: AIVLTQTPLSLSVTPGESVSISCKSTKSVLDTDGTIVLNWYLQRPGQAPQRVIWSTFYRETGVPDRFTGSGSDTDFTLHISRVEAEDVGVYYCQQSRESTSFGAGTKLDLK
B6: binds [1].

B7: pOA-15 (antibody, V domains shown)
VH: EEKLVESGGGLVQPGGSLRLSCVGSGFDLSDYGFSWVRQAPGKGLETMAFIDSRTSSFTTYTVIGVKGRFTIDNDNALQLNSLTSEDTARYFCARGRGSNGPKGLIGAYGMDLWGPGVEVVVSS
VL: QIVIQEPAMSVSLGGTVTLTCAYRSGSVTIKDGPNWYQQTPGQPPRQLIYNTNSRPTGVPSRFSGAISGNKATLTIAGAQAEDEAEYFCILYKNLEEVRFGDGTHLSVV
B7: binds [1].

B8: pOA-5 (antibody, V domains shown)
VH: EEKLVESGGGLVQPGGSLRLSCVGSGFIFSSGEITWVRQAPGKGLEWLAYTTIRGTSKYYADSVGGRFTISRDDSQNTATLQMNSLRIEDTARYYCARGKEDAVQGYYGKALDLWGPGIGVVVSS
VL: SSQLTQPPGVSVSLGGTATITCQGGSFGRYYSHWYKQRPGQAPILVIYDDAKRPAGIPDRFSGSTSGNSVTLTITGAQAEDEADYYCQSVDRSGNAKFGGGTHLTVL
B8: binds [1].

B9: pOA-1 (antibody, V domains shown)
VH: EENVVESGGGLVRPGGSLRLSCIFSGFTFSTYSVRWVRQAPGKGLEFLTYIFKNVGDIDTADSVKGRFTISRDNSQNTAYLQMNSLRPEDTARYFCLVANKYWGPGVEVLVSS
VL: AIVLTQSPLSLSVSPGDSASISCRSSQSLVEDDGSSVLNWYLQRPGQSPQRLIYSAVGRDAGVPDRFSGSGSGTDFTLTISGVEAEDLGVYYCQQSKVSTTFGAGSKLDLK
Work on B9 yielded a Kd [2] of 0.04 nM.
